# Test results taken from patent US10155985B2, “Evaluation of eosinophilic esophagitis” (CHILDREN'S HOSPITAL MEDICAL CENTER, priority 2004, dated 2018).
# B1: SEQ_ID_#95 (nucleic acid, listed as Homo sapiens)
# DNA: TTTTTTTTTTTTTTTTGTAATAAGAAAAAATTTTAGTAAAAGAAAATTCTCACAAAGTTTTTAGTAAATGAGATTATGTTCATGAATGTGTTTGGTAAACTGTAACTCCACAGGGCAGCTCCAAGTCATGAGTGTGCAGTTGGGCTCAAACCGTACAGAAGTCATTTCCAGGATGTTATCCTTACTCTTCTAGGAGCCCACATCGCCCAGATGAGGAAGGCCACCGCTGCCGCCAACGCCGACTACCGTGAGCAGCTTCCTGCTCCCCTGTCGTCGCCTCTGCGGTCGGGGCACTTTCCCCAAAGCGCT
# B2: SEQ_ID_#165 (nucleic acid, listed as Homo sapiens)
# DNA: CCAAAAAGTCAGTTGATATGACACAGTCACAGACAGAACAGTCAGCAGCCCAAGAAAGGTCCTCACGGCTGCTGTGCTGGGTAGCACTTGCCATCCAGTTTCTAGAGTGATGAAATGCTCTGTCTGTACCGTTCAATACAGTAGGCACTGGCACTAGCCACATGTGCCAGCTAAGCACTTGAAATGTGGCCAGTGCAATAAGGAATTGAACTTTTAATTGCATTTAATAAACTGTATGTAAATAG
# B3: SEQ_ID_#186 (nucleic acid, listed as Homo sapiens)
# DNA: CACCGGCTACAAGGCTAGACCGGGGGCTCGCATATCTCCACTTGCAGCTGCCACTGCCATTAGAAGAACTTGCTCAGCCAGCTCCTGGGCCCCAGGAAAAGGACAAGTGTCACCCAGAACAGAGCCACCTCCAGCTGCACTCAGCTCCAGAAGCTGGCCCAGCCGGTCCAGTACACCTTTTAAATAATGTCCTCTACGTGCCGGTGTGGAAGTAGCCCGGATGCAATTGAATGAACAACAGACGGTGCTTTCCAGGACGGCGCTGTGCTTTCCAGGATGGTGCTGTGCTTTCATTCATTTGGGTAGCTCCTCTGTGAGCCTCCCAGCGCCGACTGCAGAGCCCCCACTCTCCAGCCTGCAAGACCCCGAAATTCAAGCCACACAAAGAAAGGAGGAGGGGGCCGTGGCATTTACTGAACCTTATAAAACTGTCAGCAAAACAGCCCTTAGGCTTGGACTCCCTGCTAGCCGGGTTTTACGGTGCTGAAGTCAGCATCTTGATTCAGCTGCATAAATAATCTCCTGCAGTCCTGCAAGGCCTGGGGTAGGAGAGGGTATGGGGACCAGGGCACTCTGTAAGGGCTGGATAGGAACCCCAGGGAATAAGACAGACCAATGCGGGACTTCAGACTCCACTGCAGCGGGATCGGG
# B4: SEQ_ID_#185 (nucleic acid, listed as Homo sapiens)
# DNA: AATAATTAATGCAATTTAATGACAATAAATAAACTTCAAAGTCCCGCCAAAACCAGCAGAACCTCATCAAAGCAAAAGAAACAAGCTTCTTTCCAGCTCAGAGGTGAAGCGCTGCAGATGGCCAGTGTTTCATCTCGAGGGGAGGGTTGGGAAAGGCTGTGGAATGAGGG
# B5: SEQ_ID_#142 (nucleic acid, listed as Homo sapiens)
# DNA: TAGAGGTTAAATGACCCCATTTGTGGGGTGGTTTATTGTTAAAATGATTAAACATGCTAAAATCACATGGAGTGGCTATTCCACTTTTGCCCTGACTCCATAGTGGGGCAAATGGGAACTACAGGAGTCACTTGGTTTGTGTGGCCTCTGGGGATGGTTAGACTTGGAGGGTTAGCGGTGAGCAGGTTAGCAAAGCCCCAAGCATCCTTCATGTAGTACACTTTTCCCAGCAGTAAAAAAATTCAGAGATTTCCCCCTTCTTCACTTTTCTTTCCTCCCTATATGTGCCCTACTTCTCATTCTCCTATGGCCCTGGAACCTCTTATGCTTCTGCCCGTTATGGTCTTAGACTAGATGATGAGGGAGGCTTTTCCTTGACACCAGCATTCCAGTCT
# B6: SEQ_ID_#19 (nucleic acid, listed as Homo sapiens)
# DNA: ATGGCCTGGACCCCTCTGCTCCTCATGTTCCTCTCTCATTGCTCAGGTGAGAACTGGTTTTAGGTGTCTAGGGTTAGCTCCTTAGCTTGCGTCAGCCTCTCTGGCTCAGATCCCCAAGACATGTATCTCTAGTTCCTGCCCCAGCCCCCATGAGTGTCTGTGCTTGCAGGTTCCCTCTCCCAGCCTGTGCTGACTCAGATGACCTCACTCTCTGCATCTCCGGGAGCATGAGCCAGACTTACCTGCACCCTGAGCAGTGGCTTCAGAGTTGGTAACTTTGCAATATAGTGGTCAGCTGAAGCCAGGCAGCCGTCCCAGGTGTCTCCTGAGATACTACTCAGACTCAAATATCACTCAGCACCCTGGGGTTCCCATCCACTTCTCTGGATCCAATGATACATTAGCCAATGCAGGGATTCTGTACATTCCTGGGCTGAAGCCTGAGGGTGAGGCTATTACTGTTGTACGTGTCACAGCAGCTCCAAGT
# B7: SEQ_ID_#243 (nucleic acid, listed as Homo sapiens)
# DNA: GGAAAGAGAGGAGAGGGGAGGGGAAGAGAGGGGAGGGAAGGGCAGGGCAGGGCAGAGCCCGGCAGGCAGCCCTCAGAGGAGGGGCGCAGGCCCCAGCCCAAGGCCTCCCGCGCCTGCCCAGGTCCCGGCCTCCATCGTCCAGGGCTCTGGGGCTCCCAGGGGAGACACCCACGCTCGGCCAAGCCCAGGGTTCCAGAAGCCCAGGGGTGGCGGCAGCCGGGCTCAGCCTATGGCCAGGCTCGCATTCAGACATGCGCCAGCCTCGGTCGGCTCTCTCCGGGAGACACTAAGATCTCCTCACTGACTTTGGTGTTCCTTGGTCTCACCAGCGCGTCCTAGCTGTGCCGAGCTCACACCCACCCTGTTTGGTGTAAGCCACAGGTCCACAACGTTCATCAGCTCTGGAAATCCCTCAACAATTGTGTCCAGTTTCACCACGAATTCCTTCTCCATATCCTCACCATTTTCTTTTACCCCCTCATCAAATTACTCCCTTCCGTCTAATCTGCTGATTAACTCATTCATTTTATCTTAAATTATTATG
# B8: SEQ_ID_#116 (nucleic acid, listed as Homo sapiens)
# DNA: TGTAAGTATTTACTTTTAATTCTACTTTCAGGTGGAAAATGATGAGAACTCCTTAGGGGGTCTTTAATCTCAAGATTGTCAGTCTAGCTAAATATAATTAAAAGACTGCCTTCTGTGTTTACTGCTGAATAATGATGAGAAAAAATAGTGTAATTTTTTTAATGTTTGCTAACCAGGTTCTCCATAGACAACTTTAGTCAGTGGTCATAATATTGTAGATTTAGCTGCAAATTTAAGAGGTGAGAAAAGGAATATGTTTGTTCCTAGGTTTGTTCTAATCAGACCAATTCAAAGTTAATATTGCAAGGCTATACAACATCTATCTCATCCAAATTGTTGTTTTATAGCTTTCAAACATCCTTTTTAACTTCTCTGCTCTGCCACTCATCATTCCATTAGGGCAAAAAGAAACAAAACTTAAGCTTTGAAGCTCATTAGATACATACTTTAAAAAATAGATCAAAATAAGCAAAAAGTACAATTTGTATTATCTGCATGAGTTTCTAGTTATCAGTGACCTAAGCTAAGTCTGGCTTTTAGTAGCAAGATTTTAGCATACCAGGCTCTCAAGGGAGGTATTTCTCAGTATTATTTCAATTTTTAAAGGATAAAGACATGTTCTAATTTAAATTTATTGAAATTTGATAATCCATGTGACTTTTCAGTACTGTGCTTGGTGCTTTAGATGGAAATAGGATAAATATCTGACTCAATCATCCAGGAGTCATGATACATACTTTACAATCTGATTTA
# B9: SEQ_ID_#1069 (nucleic acid, listed as Homo sapiens)
# DNA: GCCGCCTCCTCCTGGGCTGGGCCCGCGGTGTCTCGTCCCCTCGCGGAGCCGCTCCTGCCGCCGCCGCCGCCGCCTCCTCATTCATCCTCGTGCACCATAGGCGGCACAGGCACCAAGATGTCCAACCGAGTGGTCTGCCGAGAAGCCAGTCACGCCGGGAGCTGGTACACAGCCTCAGGACCGCAGCTGAATGCACAGCTAGAAGGTTGGCTTTCACAAGTACAGTCTACAAAAAGACCTGCTAGAGCCATTATTGCCCCCCATGCAGGATATACGTACTGTGGGTCTTGTGCTGCCCATGCTTATAAACAAGTGGATCCGTCTATTACCCGGAGAATTTTCATCCTTGGGCCTTCTCATCATGTGCCCCTCTCTCGATGTGCACTTTCCAGTGTGGATATATATAGGACACCTCTGTATGACCTTCGTATTGACCAAAAGATTTACGGAGAACTGTGGAAGACAGGAATGTTTGAACGCATGTCTCTGCAGACAGATGAAGATGAACACAGTATTGAAATGCATTTGCCTTATACAGCTAAAGCCATGGAAAGCCATAAGGATGAGTTTACCATTATTCCTGTACTGGTTGGAGCTCTGAGTGAGTCAAAAGAACAGGAATTCGGAAAACTCTTCAGTAAATATCTAGCGGATCCTAGTAATCTCTTTGTGGTTTCTTCTGATTTCTGCCATTGGGGTCAAAGGTTCCGTTACAGTTACTATGATGAATCCCAGGGGGAGATTTATAGATCCATTGAACATCTAGATAAAATGGGTATGAGTATTATAGAACAATTAGACCCTGTATCTTTTAGCAATTACTTGAAGAAATACCATAATACTATATGTGGAAGACATCCCATTGGGGTGTTATTAAATGCTATCACAGAGCTCCAGAAGAATGGAATGAATATGAGTTTTTCGTTTTTGAATTATGCCCAGTCGAGCCAGTGTAGAAACTGGCAAGACAGTTCAGTGAGTTATGCAGCTGGAGCACTCACGGTCCACTGAAGCTCTGAATCCTCAGGGATGCCACCTGCACATTCTCATACTCTGTCCGGGGTCCCAGCCTAGCCTTTACCACGATACTGGTCCTGGTTTGGGGGGATTCTGAAACCTCAAACTAATAGAACTTTCTTCTCTTTTTTTCTAGTAGGTGTAGTCCTTCCTTAATTTCAACTCATTAAAAAATGCTTTATAGTTTAGGGCAGTGGAAGGAAGGCTGGCATCAAAATATTTTGATCAAAAAAGATGACAATGTAAAGGCTCAGTTGTGGCAGACAGTTTTTT
# B10: SEQ_ID_#1005 (nucleic acid, listed as Homo sapiens)
# DNA: ATAGATTCTGCAGCATGGCAAACAGGTAATACTTAAAGCCAAATGGCGCTTCGGCTTATTTCAATACTATTTTTATGTAAAGATCAGTGTGAGAATATCAGCTCAATGGTTGAGGTTCTAGGATCAATTGCCTTGCAGTTTTTATACTAGCTTTTGATATCTTTTGCCTATTAAAACACTTTGTGAACTTTAGAATTAAGGAACTAAAAAATATTTACCATAAGTCCAAGTTATGACTTGAGGATCATATCTGATTAGAACTGTGGCAGAACTACTAGAAAAAGATTCTGCAAATTGGTTTCAGTGATTCTTGTTGATGTAATCAACAAGATTACATAATCAACAATAATAGATATTGAACCAAAATGATCCTTTTTTTAAGTTTAAGGTTATTTAGTTTCTCTTGCAAGGATATGATTTAGTCCTAATAGGGAATATGTGTATGTACTGGTGGGGAGCAGTGGGCTTGCTGCATGTATGTATGTTTTAAAATTAATAAATATTATCTTACTGGGCTCCATAGATGGTTTAAATTTAGATTTATTTAATTAAGAGGCTATAAATAATATATACACTACTGTATGGTATTTAACAAATAAGTTTTAAATCTGTTAATTCTTCTGGAAAACTTTGGATGTAGGGATGGCAAGCTAATTTTCTTGTATAGCTGGTGATATAAGCAGCATGGTCATAAAATAACATTTCTTATAAAGAC
# Tested on: EE transcriptome
# Assay: Genome-wide microarray transcript profiling of esophageal biopsies, EE patients vs normal individuals (EE transcriptome)
# Details: transcript level in esophageal biopsies of EE patients (n=76) compared to normal individuals (n=13); Affymetrix Human Genome U133 plus 2; p<0.01
# Outline: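 Distal esophageal biopsies from EE patients (n=76; >24 eosinophils/hpf, basal hyperplasia) and normal controls (n=13; 0 eosinophils/hpf) profiled on Affymetrix Human Genome U133 plus 2 chips. Expression by absolute call and average difference, global scaling; transcriptome genes defined as p<0.01 (Welch t-test) and ≥1.5-fold change.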
row,Molecule,Fold Change
1,B1,3.633
2,B2,2.732
3,B3,2.617
4,B4,2.62
5,B5,2.896
6,B6,10.29
7,B7,2.308
8,B8,3.363

# Same assay, conditions: transcript level in esophageal biopsies of EE patients compared to normal individuals (NL); Affymetrix Human Genome U133 plus 2; p<0.01; >1 up-regulated, <1 down-regulated
row,Molecule,Fold Change
1,B9,0.587
2,B10,0.61
